B1: 57mer Stl-binding dsDNA (dsDNA)
DNA 1: GCTCATATTATTCCTCTCCTACCATTTTATCTCTAATTGAGATATTTATATTCAGAT
DNA 2: ATCTGAATATAAATATCTCAATTAGAGATAAAATGGTAGGAGAGGAATAATATGAGC

What was measured:
[1] = biological target: Φ11 dUTPase, dUTPase enzyme from the Φ11 Staphylococcal phage (Staphylococcal phage Φ11); assay: inhibition of enzyme activity (steady-state dUTPase kinetics); 20 nM Φ11 dUTPase, 1 mM HEPES-HCl pH 7.5, 5 mM MgCl2, 150 mM KCl, phenol red, 293 K; the two proteins preincubated 5 min; quadratic binding equation fitted; apparent Ki
[2] = biological target: Φ11 dUTPase, dUTPase enzyme from the Φ11 Staphylococcal phage (Staphylococcal phage Φ11)
[3] = biological target: Φ11 dUTPase, dUTPase enzyme from the Φ11 Staphylococcal phage (Staphylococcal phage Φ11); remark: listed apart in the source
[4] = biological target: Stl (SaPIbov1 repressor), wild type (Staphylococcus aureus pathogenicity …, UniProt Q9F0J8); assay: EMSA; shift at 1 uM Stl (monomer); settings: protein: recombinant; tags: N-terminal GST removed by thrombin (pGEX-4T-1); chain copies: 2; label: none (GelRed stain); blunt
[5] = biological target: Stl-CTD (Staphylococcus aureus pathogenicity …, UniProt Q9F0J8 85-267); assay: EMSA; no shift at 2-30 uM Stl-CTD (monomer); settings: protein: recombinant; tags: N-terminal GST removed by thrombin (pGEX-4T-1); label: none (GelRed stain); blunt

Molecule | Ki [1] [nM] | maximum inhibition of Φ11 dUTPase activity at saturating Stl-CTD concentration [2] [%] | maximal inhibition of Φ11 dUTPase activity by Stl-AA [3] [%] | binding result [4] | binding result [5]
Stl-CTD, carboxy-terminal domain of the SaPIbov1 pathogenicity island repressor Stl (domain or fragment) | 1.5 | 40 | – | – | –
Stl-Q40A,N41A double mutant of the SaPIbov1 repressor Stl (natural protein) | 1.4 | – | > 90 | – | –
B1 | – | – | – | binds | no binding
